T1: cynomolgus monkey CD19 on cynomolgus monkey B lymphocytes (cynoPBMC) (cynomolgus monkey, UniProt A0A2K5W8L9 20-557)
T1 sequence: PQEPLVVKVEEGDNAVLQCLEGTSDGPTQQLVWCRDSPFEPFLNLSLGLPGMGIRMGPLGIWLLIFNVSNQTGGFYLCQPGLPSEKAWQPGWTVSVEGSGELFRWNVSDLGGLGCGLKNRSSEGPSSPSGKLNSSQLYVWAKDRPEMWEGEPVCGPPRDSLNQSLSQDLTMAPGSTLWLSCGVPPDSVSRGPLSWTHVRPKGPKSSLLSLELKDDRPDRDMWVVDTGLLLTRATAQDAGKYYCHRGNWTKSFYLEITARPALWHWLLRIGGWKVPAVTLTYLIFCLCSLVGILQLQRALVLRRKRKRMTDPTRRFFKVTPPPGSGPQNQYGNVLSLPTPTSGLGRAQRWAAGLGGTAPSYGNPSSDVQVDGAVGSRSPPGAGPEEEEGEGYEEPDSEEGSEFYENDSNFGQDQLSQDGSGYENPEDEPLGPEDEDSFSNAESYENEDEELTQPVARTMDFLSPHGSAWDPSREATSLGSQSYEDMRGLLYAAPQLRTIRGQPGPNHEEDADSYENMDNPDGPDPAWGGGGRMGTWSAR

T2: human CD19 on cells (human B lymphocytes; Raji, Daudi and Reh tumor cells) (human, UniProt P15391 20-556)
T2 sequence (looked up): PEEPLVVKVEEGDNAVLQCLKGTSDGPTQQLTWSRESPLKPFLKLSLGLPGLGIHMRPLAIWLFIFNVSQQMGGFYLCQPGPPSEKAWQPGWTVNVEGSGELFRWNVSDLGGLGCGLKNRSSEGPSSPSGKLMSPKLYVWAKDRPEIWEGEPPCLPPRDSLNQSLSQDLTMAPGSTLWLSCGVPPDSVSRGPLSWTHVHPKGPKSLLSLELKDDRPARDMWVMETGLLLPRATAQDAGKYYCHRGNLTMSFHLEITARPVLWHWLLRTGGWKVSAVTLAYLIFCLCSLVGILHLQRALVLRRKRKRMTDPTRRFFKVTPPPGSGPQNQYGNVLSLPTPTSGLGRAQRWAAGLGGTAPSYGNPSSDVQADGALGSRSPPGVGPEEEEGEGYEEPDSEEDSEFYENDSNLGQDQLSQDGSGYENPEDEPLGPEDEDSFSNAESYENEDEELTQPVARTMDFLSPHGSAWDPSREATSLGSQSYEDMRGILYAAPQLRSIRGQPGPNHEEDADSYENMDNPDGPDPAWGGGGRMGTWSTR

B1: CD19×CD3 bispecific antigen binding protein ITAB2006 (bispecific antibody)
chain: EVQLVESGGGLVQPGGSLRLSCAASGFTFNTYAMNWVRQAPGKGLEWVARIRSKYNNYATYYADSVKDRFTISRDDSKNTLYLQMNSLRAEDTAVYYCVRHGNFGNSYVSWFAYWGQGTMVTVSSGGGGSGGGGSGGGGSQAVVTQEPSLTVSPGGTVTLTCRSSTGAVTTSNYANWVQQKPGQAPRGLIGGTNKRAPGTPARFSGSLLGGKAALTLSGVQPEDEAEYYCALWYSNLWVFGGGTKLTVLGRAGGGGAGGGGQVQLVQSGPELIKPGGSVKMSCKASGYTFTSYVMHWVRQKPGQGLEWIGYINPYNDGTKYNEKFKGRATLTSDKSSSTAYMELSSLRSEDSAVYYCARGTYYYGSRVFDYWGQGTTVTVSSASTKGPSVFPLAPSSKSTSGGTAALGCLVKDYFPEPVTVSWNSGALTSGVHTFPAVLQSSGLYSLSSVVTVPSSSLGTQTYICNVNHKPSNTKVDKRVEPKSCPPCGGGGSHHHHHH
light: DVVMTQSPSSIPVTLGESVSISCRSSKSLQNVNGNTYLYWFQQRPGQSPQLLIYRMSNLNSGVPDRFSGSGSGTDFTLRISGVEPEDVGVYYCMQHLEYPITFGAGTKLEIKRTVAAPSVFIFPPSDEQLKSGTASVVCLLNNFYPREAKVQWKVDNALQSGNSQESVTEQDSKDSTYSLSSTLTLSKADYEKHKVYACEVTHQGLSSPVTKSFNRGECPPCS
B2: CD19×CD3 bispecific antigen binding protein ITAB2003 (bispecific antibody)
chain: EVQLVESGGGLVQPGGSLRLSCAASGFTFNTYAMNWVRQAPGKGLEWVARIRSKYNNYATYYADSVKDRFTISRDDSKNTLYLQMNSLRAEDTAVYYCVRHGNFGNSYVSWFAYWGQGTMVTVSSGGGGSGGGGSGGGGSQAVVTQEPSLTVSPGGTVTLTCRSSTGAVTTSNYANWVQQKPGQAPRGLIGGTNKRAPGTPARFSGSLLGGKAALTLSGVQPEDEAEYYCALWYSNLWVFGGGTKLTVLGRAGGGQVQLVQSGPELIKPGGSVKMSCKASGYTFTSYVMHWVRQKPGQGLEWIGYINPYNDGTKYNEKFKGRATLTSDKSSSTAYMELSSLRSEDSAVYYCARGTYYYGSRVFDYWGQGTTVTVSSASTKGPSVFPLAPSSKSTSGGTAALGCLVKDYFPEPVTVSWNSGALTSGVHTFPAVLQSSGLYSLSSVVTVPSSSLGTQTYICNVNHKPSNTKVDKKVEPKSCPPCGGGGSHHHHHH
light: DVVMTQSPSSIPVTLGESVSISCRSSKSLLNSNGNTYLYWFQQRPGQSPQLLIYRMSNLASGVPDRFSGSGSGTDFTLRISGVEPEDVGVYYCMQHLEYPLTFGAGTKLEIKRTVAAPSVFIFPPSDEQLKSGTASVVCLLNNFYPREAKVQWKVDNALQSGNSQESVTEQDSKDSTYSLSSTLTLSKADYEKHKVYACEVTHQGLSSPVTKSFNRGECPPC
B3: CD19×CD3 bispecific antigen binding protein ITAB2005 (bispecific antibody)
chain: B2 chain
light: B1 light

What was measured:
Assay in all cases: cell-based or functional assay
[1] = target: T1, cynomolgus monkey CD19 on cynomolgus …
[2] = target: T2, human CD19 on cells (human B …)
[3] = target: T1, cynomolgus monkey CD19 on cynomolgus …; remark: listed apart in the source
[4] = target: T2, human CD19 on cells (human B …); remark: listed apart in the source

| Binder | cell killing activity relative to ITAB2003 (cynomolgus monkey PBMC against autologous B cells) [1] | cell killing activity relative to ITAB2003 (human PBMC against autologous B cells) [2] | EC50 of CD19×CD3 BSAP mediated PBMC cytotoxicity against autologous B cells (cynomolgus monkey PBMC) [3] | EC50 of CD19×CD3 BSAP mediated PBMC cytotoxicity against autologous B cells (human PBMC) [4] | EC50 of CD19×CD3 BSAP mediated human PBMC cytotoxicity against Raji tumor cells [2] |
| --- | --- | --- | --- | --- | --- |
| B1 | ≥ 62 fold | ≥ 7 fold | 18.5 ng/mL | 0.2 ng/mL |  |
| B2 |  |  | > 2090 ng/mL | 2.1 ng/mL | 0.49 ng/mL |
| B3 | ≥ 62 fold | ≥ 7 fold | 33.5 ng/mL | 0.3 ng/mL |  |

From patent US20210301018A1 (ITABMED HK, published 2021)
